{"source": "patent US7070771", "biological_target": "CD40 (human, on CLL B cells and CD40-positive tumor cell lines) (human) (UniProt P25942)", "sequence (P25942 21-277)": "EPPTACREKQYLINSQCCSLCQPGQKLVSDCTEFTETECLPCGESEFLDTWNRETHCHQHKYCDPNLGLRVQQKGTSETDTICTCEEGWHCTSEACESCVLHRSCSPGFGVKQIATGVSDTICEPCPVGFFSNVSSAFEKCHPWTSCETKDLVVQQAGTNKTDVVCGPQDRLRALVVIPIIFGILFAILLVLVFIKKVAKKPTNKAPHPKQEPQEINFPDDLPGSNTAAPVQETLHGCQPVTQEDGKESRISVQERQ", "assay": "cell-based or functional assay", "data": [{"substance": "G28-5 (an anti-CD40 monoclonal antibody)", "values": [{"measurement": "% positive cells, Human CD80 (CLL cells)", "value": 26.7, "unit": "%"}]}]}
